Tested on: Aβ40 (t=0 days), Aβ42 (t=0 days), Aβ42 (t=24 days)
Assay: SPRi interaction with the three immobilized Aβ forms
Type: binding, human
Conditions: analyte flowed onto the SPRi chip for 10 minutes, all three Aβ forms

Aβ40 (t=0 days), Aβ42 (t=0 days), Aβ42 (t=24 days), sequence (P05067 672-711 limits assumed): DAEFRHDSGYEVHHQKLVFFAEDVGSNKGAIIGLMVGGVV

B1: ovalbumin: non-correlated protein used as negative control sample in SPRi (Sigma-Aldrich, A5503) (protein)
chain: GSIGAASMEFCFDVFKELKVHHANENIFYCPIAIMSALAMVYLGAKDSTRTQINKVVRFDKLPGFGDSIEAQCGTSVNVHSSLRDILNQITKPNDVYSFSLASRLYAEERYPILPEYLQCVKELYRGGLEPINFQTAADQARELINSWVESQTNGIIRNVLQPSSVDSQTAMVLVNAIVFKGLWEKAFKDEDTQAMPFRVTEQESKPVQMMYQIGLFRVASMASEKMKILELPFASGTMSMLVLLPDEVSGLEQLESIINFEKLTEWTSSNVMEERKIKVYLPRMKMEEKYNLTSVLMAMGITDVFSSSANLSGISSAESLKISQAVHAAHAEINEAGREVVGSAEAGVDAASVSEEFRADHPFLFCIKHIATNAVLFFGRCVSP
SPRi interaction signal: did not produce interaction signals

Reference: patent US20190015361A1 (Maxwell Biosciences, Inc., priority 2017, published 2019)
